Source: the domain aggregation screens of Martell et al. (2025)

assay: soluble fraction after stress (log2 fold change); higher = more stays soluble; pooled small domains, quantitative proteomics; settings: stress: 75 degC
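Also: 20 min heating vs room temperature control held 20 min.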

Sequence | soluble fraction (log2)
HMSRVHHGFNISIARNRKGLKQAALADMLGISQQRLSQLENQRVVKDEILEKVSEATGVSVEDLKTIE | -0.08
HMSRVSVDGEEVNFEGEIPDDPSRIYELLMGALSEQSRVVVKFFVDGKDALLDEGFPSRYQMIEAESV | -0.0462
HMSRYAFEGNVVRLNQKDFDSWKALFTNIDLVSELTRLDIEFTHDKPKNWFSTASAKLNYQNKNAY | -2.51
HMSRYLLPYAFARTQQVLLEEKSGELTLWMHSGSNLGGISEVTRKYAVQHVTHEPMDALLNRISSAYAN | -3.34
HMSSAVKRALAELPENWRMIVYYRVVEGLSYAEIAKVLDIPDGSVMSGLHRGKKMLRGLLLEYAQQEGYD | -1.79
HMSSDDEAFKRELVGLIPHLRAFARTLTGDPTAADDLAQDAMMKAWDARASYQMGTNMKAWTFMILRNQFY | -2.53
HMSSDKVWSFEASGKQLQASYVAFENETVYLRASEDGSLLQFPLTDFGMKDQLVVLELYELSAKINRSN | -0.934
HMSSDLSNVVKIIDTLKHKKGALLPILHQIQREIGYIPLKTIDTIAKKLQQTPAEIHGVISFYHQFRTS | 0.0116
HMSSEASALRGWLQTSQYQGSVTLFANALNVPLKTVEDWVYGRSKPSLQHWSQLYEATGLPEYQQ | -0.387
HMSSFRDISGTVYVKASAANLRSEPNTSSLIVDTLYYGASLQRISTNDIWTKVKTGNGQIGFMDNSLFQT | -3.12
HMSSGSLLTEREIEILAEMAKGLTNKAIGEKLFISVATVKTHILNIYRKLEVSSRVTAVNKAKQMRL | -2.43
HMSSGTAYATDAVNVRSGPGTSYTVLGYLSRGEKVTITGTVSNGWTQIQLPGNRLGYVSSAYLSASYPS | -0.85
HMSSHNIALDQDVVVTQLKGKVYLVAADGSQKQLAEGDILPKDAVLITPEGASFKGGNQTFTLS | 0.103
HMSSIFTRIIAGEIPSYKVAEDENYYAFLDINPLTKGHTLVVPKMEVDYIFDLDDKTLAGMMLFAKKG | -0.129
HMSSKIKYSEFITMLDKGEVESVVLKSDTLTITLKHGTGVAAQTKTTTLMEDLSELTKRLEKAGIKDFDK | -1.38
HMSSLDTLTARETQILAEMAQGKNNAAIAAAVSVSERAVEKHTNSIFAKLGLSEEKDVNRRVMAVLLFLGR | -3.6
HMSSLEQVYPNPVSSILKLNSFIKNYKILNATGHEVLKGSGNTINVGKLPSGSYFLITSENYSIKFIK | -1.08
HMSSLSGVRRTLLDSLGMPPDASDEELADRREELRGSLDTAPQARRKWIEQQLARIDAITALDASG | 0.106
HMSSPEAAEVQRLLKDGQHVQALKIIDESLARNPKDPQMRFRRGVALSMLDRKNEALAVFQKLVED | -0.182
HMSSPRAIYSAIQKAVGEDMILYREDVQIILDKLDADLLVDDILEKMELDGTLVRQRDGTWLLL | -0.801
HMSSQVFLGQKNSIAKYDLNENKPIWTKEIKGTPLILSTWKDMLLIQIQTWVSYTHMLVKQENGQTVWE | 0.288
HMSSRLEIEITSKIDDLSHTWRAVGAKQPKGNIKSSLLPSGVKVGETFRVEADFLLDGIEIVSVLPP | -1.86
HMSSSLDQLTVREREILAQVSRGLSNKAIARELGISHDTVKLHVRHILSKLGFSSRVEAAVFAIEHRIG | -2.35
HMSSSMDAIAEIIRSIPRGDHLTAPEVYELAKQRGLKLSLSTVYRTLNKLKVVGDVITVSGDRGLRYESV | -0.336
HMSSTPEPPQAVLDLVNLREQARAGKDWTQSDAFRQQIAALGWTVKDTKDGPVVSLSPTTTE | 0.392
HMSSTSTMTVAEATIGRKVKHDKFGEGTIITVADVNGDKKLTIAFNQQGVKMLMLSMAKLEL | -3.36

Sequence | soluble fraction (log2)
HMSSVEVWINGKSSGLTSDNRAQILQQLPAESIERIEVIDNPSAKFSAEGSAGIINIVLKKD | 0.195
HMSSVRDNGDLELVPGDRIRHDDYGEGRVTAVTGVGSKRIAHAVFDSVGERKLLIKLSPIEKI | -0.0574
HMSSWMTKDGKIKPISKWAGVPMTSQQQADYAAGKVVELTNIPDKQGQLNTVYLKFNPEKQRPTTSLNDPR | -0.00849
HMSSYETVTLNGQRYFKYKVKSGEGLYAISRMFSTPIAEIIRHNPSSNAGLKNGQELLIPVN | -0.356
HMSSYMQMQLERLESLLQKNDLTDSDKYDIRQLVEDLDKVPESVSPNLVGAYMTIKNRYASVLKTVL | 0.0189
HMSTANISIEQAKEIALNHANLTSNQVIFSRTELDYDNGIQKYEVEFYYNNREYSYEINANTGDILGYEQ | -0.722
HMSTANIVVPDVKGKTFEEAKKAIEAEGLTAKAEGDESGVVQKTSPSYGVSVESGSEVTLTLVKSDD | 0.494
HMSTDNINYKNILIASLLIHAAKIDENYTENEKNIIKKALIELDEIDSKKADEIMILAEKKE | -0.265
HMSTGYEMVREVANQGSFSKAANSLGVSGPAVSKQVKSLEERLGLVLFHRTTRAVSLTQAGRQLVDVLN | 0.114
HMSTIKEKIIQYLDFKGISKYDFYQKTGVSNGVLSQKSGMSEDNIMRFLSYYDDINTDWLFYGKGEMIKT | -2.06
HMSTKLLEVNIFDDSKWVNKTIMDSDIPEDILIVMIKRGDEVIVPKGSTIINKGDILVLSANNFDNLLN | -2.45
HMSTMTEQEAFGLWERINDFIARTGNEPNRNSNDAHEVRMAEALNFIRIKVAEQRNSQSNSEAQNN | -0.263
HMSTNDIFISGDKLVLKNTTGQMDVFDMAGRKVLSSTNNVSEMNVSSLPKGVYVVSASIGGSKMKAKVYK | 0.536
HMSTQGRRIEILRHLTQTKKKADVNFVELGRTFGTSDTTIRKDLDWLIKNEYWENHGEWKPTQAGLNMI | 0.0518
HMSTRKAFVNGDGVRLRSGPGTNHSIRASLTKGQTVFVTGTKDGWASVSVQGGASGWVSADLLKYE | 0.59
HMSTRYVRTPAGQAEIQARVFKLSRPVRNLLLVINDSRSIDDWLVQVHGITADDVAMLRAEGLIAEVS | -3.06
HMSTSEQVYTTDKVNVRREADTSSEKLGSLEKGTAISRTGTEGEWSVVNYGGVTGYIKTEFLTTEQPQ | 0.63
HMSTSFQVQVSVLDLRIRKEPTVKGQEVGKISKGIHTITETRSADGYTWGKLESGQGWIALEFTTKLD | -3.72
HMSTSLIEFTIDRNNSIANKMIMDANIPEDILVVMIKRNGDVFVPNGSTKILPGDILVLSGNKLKY | -1.69
HMSTTDGIERFLASGAVKGIGRTMAARIVEHFGSRTLTVMESEPERLTEVAGIGRKKAESIAASYAELS | -0.247
HMSTTYAPYLLGETEQEAIRMARNAGLDPQVVRQSDKSEAGTVILQSHDFGFAMKRGAVILITVSSGPLQ | -2.13
HMSTVTEVHYIAFKNGRIVDIKAALTGSAVTATSIKEQPKIENYNYTTSEVRDGILYHTYAPVA | -2.37
HMSVADNALSRQAIESRIALFIQNEDPNHPRSDADIQKELAQAGVVISRRAITKYRNHLHIPSASLRRR | -1.16
HMSVAPISYSQFESYLEQGKVASVAVGQDTIAGRFTAPVDGKSQFVTTIVNPQILDRIDKSGVEITGV | 0.144
HMSVAVKAPLQGTVMKVNVKPGDTVTKGAPVAVIEALKMENDVPAPQDGVVASVDVKSGDSVKTDQVLLTL | 0.563
HMSVDAMDEANERKMAKTFNMIVLGGLLKIRPIVSIESVIKALRKTLPERHHHLIPMNEEAIHIGMDII | 0.0832

Sequence | soluble fraction (log2)
HMSVDDEQLLKIIDDIFQQNPQAVTDAKTDSNAIHFLIGQVMKETKGHADHAISKEIIEKKLS | 0.0407
HMSVDEVEALYLKIAEDRLEGKLPDKVSESDLMRRYGLTKAQLGAILQRIVHEGWIERTPGHGWRFLPIL | -0.538
HMSVFMIIVLKQHAPQEFVDMLMSSIKAKGVQIDVSKGARKTILGLVGNTSVIDREQIAGYEYVDKVIRV | -1.94
HMSVFTDIYHQADHETKLMLIHEIKIVGDEKEFRLLKSIIDSTSNDLSKEANDALNAIKIRLALSK | -2.34
HMSVFTPLTRSELETFLAPYELGRLLDFQGIAAGSENTNYFISLEKGEYVLTLVERGPVAEMPFFIELLD | -1.33
HMSVGDLLENLIRETRAQFSAPPESLGVAEKRRFVALLSQKGGFLLKGAVSRAASVLGVSEQTVYRYLKDS | -1.83
HMSVGDLPPEAREIWKLLDGRELSLDLLAEETGRETGALLSTLMMLEMKLLVEHGSDMVYRRIPRR | -2.85
HMSVHSAELKKLKAHLLGIIGRELETQPSTENREEMVRQILHQSYESLRLNLPMQLKEELFNEILAEVL | -0.459
HMSVLEHVSGNVRRLRLQAGLSQEALARAASVSRRMLVGIESGDVNVSLSTLDRIAAALGVLFPDLVQAP | -2.53
HMSVLPAREQVAAILRQAILLRKFKEGQDLTLKDAAELVGSSITPVREAFQILENEGLIELRPNKGAVVL | -0.627
HMSVPEDLYFRELEVEGNKVRISGIASTNNRVSALMRNFDQSEWFRDPSLIKVESKSPGVNEFEIVMTRI | 0.125
HMSVPNVVGRDQVEASSLLESAGFKVSVKQSYSDSVEQGKVISQSPSGSTTVSPGSTVTITVSQ | 0.395
HMSVPRPSAVEVTSLVTGVRDLLPHLGEGYVERVLVEFGFKVDETINALLEGNLPKHLQDLDPSLTKEI | -1.24
HMSVPVDEVLAALTQKLTDLRTQAMAAKDFSAVDALKAALTEAGVEVRMSKTGVELIAGPRVDAKKLGTL | 0.395
HMSVRPMVEILRVVGSPSPVWVTWARNRAAWLYETGIRPQQRLRMADGTEVLIRLVGEFAHILVVGG | 0.092
HMSVSATQMDAFVRQLRARLSSADGLDDAARLVRQDLEPFLGRFSDETERDFAAAIEQVRGSIRPVEI | -0.139
HMSVSEAELAEKYHADDLEALKSGKLHEFQENLIDRNGKKYTVQTMKDILTLSDGTRLLLGIGLD | 0.131
HMSVTDDQLRVFTNKSGTKIKAKIVEVSDDKVKLIRDDNKKFIVPINSLSEEDQDYLRDWVSNEAVEP | -0.118
HMSVTIDAGGKVYLQESEIADDQLVPRLVAISNNGYDKPIYLRADKTVGYGRVAEVMSLLNAAGFTKLVLV | -0.513
HMSVTRELMLVKVKVTPEQRAGVSAIVDIFRANIIDVGKESMIIELTGNKSKLEAFIDLLDGYEILELART | -1.46
HMSVTVPDVKRMQAEDAKALLSRYRLRSEVIDSVYVDNIPRGAVVEQIPRENSSVKENRIVFLTINSN | -0.569
HMSVTYRYSYVYNGNTYSDGWSVRRAIENNENKRFGPEPSDLDHEAQKQARVTFWAEHGVEYKEQEVV | -1.24
HMSVYIGVDQAKSIAAEHAGLSNSAVTFSKAKLENDDGMTVYEVEFFYQGTEYDYKIDASTGSILEYDLDR | -1.64
HMSWEDSLLKQAREIIDMYPQKRSAVGPLLHLAQSKDGYISDDSISVISKLVGITEVQLKSVSTFYSMYK | -1.74
